Patent publication US20240279278A1, “NMU RECEPTOR 2 AGONISTS” (Boehringer Ingelheim International GmbH, priority 2023, published 2024)
Starred links: 1 amine or outer side, 2 acyl side, 3 side chain; linkers in the order of their positions; H or OH if unused. Non-standard residues stand in square brackets, D forms with d. *: point of attachment. Pipz(1-CH2CO,4-CH2CH2NH) = O=C(CN1CCN(CCN[*:1])CC1)[*:2]; C18 diacid = O=C(O)CCCCCCCCCCCCCCCCC(=O)*; γGlu = O=C(O)[C@H](CCC(=O)[*:2])N[*:1]; 2Pal = N[C@@H](Cc1ccccn1)C(=O)O; NMeL = CN[C@@H](CC(C)C)C(=O)O; NMeA = CN[C@@H](C)C(=O)O; Nle = CCCC[C@H](N)C(=O)O; Sar = CNCC(=O)O

T1: human neuromedin U receptor 1 (human, UniProt Q9HB89 24-426)
T1 sequence (looked up): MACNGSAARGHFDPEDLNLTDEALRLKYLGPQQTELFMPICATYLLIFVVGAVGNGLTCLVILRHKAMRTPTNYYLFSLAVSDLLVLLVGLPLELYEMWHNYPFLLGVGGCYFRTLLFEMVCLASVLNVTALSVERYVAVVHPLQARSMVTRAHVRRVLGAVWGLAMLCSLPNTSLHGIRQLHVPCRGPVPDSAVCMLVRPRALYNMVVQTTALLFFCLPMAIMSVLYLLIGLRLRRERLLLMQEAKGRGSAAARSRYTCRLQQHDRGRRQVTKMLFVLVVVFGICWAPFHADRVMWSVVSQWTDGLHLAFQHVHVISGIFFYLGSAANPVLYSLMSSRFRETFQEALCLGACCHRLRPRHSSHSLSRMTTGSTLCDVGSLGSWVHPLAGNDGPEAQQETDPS


target: T1, human neuromedin U receptor 1; test: cell-based or functional assay

Row | EC50 (hNMUR1) buffer [nM] | Binder
1 | > 1000 | EEEXXXXXXXXXXXXXXXXYFLXKARG (HELM PEPTIDE1{[O=C(O)CCCCCCCCCCCCCCCCC(=O)[*:2]].[gGlu].[gGlu].[gGlu].[Sar].[Sar].[Sar].[Sar].[Sar].[Sar].[Sar].[Sar].[Sar].[Sar].[Sar].[Sar].[Sar].[Sar].[Sar].[O=C(CN1CCN(CCN[*:1])CC1)[*:2]].Y.F.[meL].[Nle].K.[meA].R.G.[am]}$$$$V2.0; SMILES CCCC[C@H](NC(=O)[C@H](CC(C)C)N(C)C(=O)[C@H](Cc1ccccc1)NC(=O)[C@H](Cc1ccc(O)cc1)NC(=O)CN1CCN(CCNC(=O)CN(C)C(=O)CN(C)C(=O)CN(C)C(=O)CN(C)C(=O)CN(C)C(=O)CN(C)C(=O)CN(C)C(=O)CN(C)C(=O)CN(C)C(=O)CN(C)C(=O)CN(C)C(=O)CN(C)C(=O)CN(C)C(=O)CN(C)C(=O)CN(C)C(=O)CC[C@H](NC(=O)CC[C@H](NC(=O)CC[C@H](NC(=O)CCCCCCCCCCCCCCCCC(=O)O)C(=O)O)C(=O)O)C(=O)O)CC1)C(=O)N[C@@H](CCCCN)C(=O)N(C)[C@@H](C)C(=O)N[C@@H](CCCNC(=N)N)C(=O)NCC(N)=O) [C18DA-gGlu3-Sar15-AEPipAc-Tyr-Phe-NMeLeu-Nle-Lys-NMeAla-Arg-Gly-NH2]
2 | 1300 | EEEXXXXXXXXXXXXXXXXYFLXKPRG (HELM PEPTIDE1{[O=C(O)CCCCCCCCCCCCCCCCCCC(=O)[*:2]].[gGlu].[gGlu].[gGlu].[Sar].[Sar].[Sar].[Sar].[Sar].[Sar].[Sar].[Sar].[Sar].[Sar].[Sar].[Sar].[Sar].[Sar].[Sar].[O=C(CN1CCN(CCN[*:1])CC1)[*:2]].Y.F.[meL].[Nle].K.P.R.G.[am]}$$$$V2.0; SMILES CCCC[C@H](NC(=O)[C@H](CC(C)C)N(C)C(=O)[C@H](Cc1ccccc1)NC(=O)[C@H](Cc1ccc(O)cc1)NC(=O)CN1CCN(CCNC(=O)CN(C)C(=O)CN(C)C(=O)CN(C)C(=O)CN(C)C(=O)CN(C)C(=O)CN(C)C(=O)CN(C)C(=O)CN(C)C(=O)CN(C)C(=O)CN(C)C(=O)CN(C)C(=O)CN(C)C(=O)CN(C)C(=O)CN(C)C(=O)CN(C)C(=O)CC[C@H](NC(=O)CC[C@H](NC(=O)CC[C@H](NC(=O)CCCCCCCCCCCCCCCCCCC(=O)O)C(=O)O)C(=O)O)C(=O)O)CC1)C(=O)N[C@@H](CCCCN)C(=O)N1CCC[C@H]1C(=O)N[C@@H](CCCNC(=N)N)C(=O)NCC(N)=O) [C20DA-gGlu3-Sar15-AEPipAc-Tyr-Phe-NMeLeu-Nle-Lys-Pro-Arg-Gly-NH2]
3 | > 1000 | {C18 diacid}-[γGlu][γGlu][γGlu][Sar][Sar][Sar][Sar][Sar][Sar][Sar][Sar][Sar][Sar][Sar][Sar][Sar][Sar][Sar][Pipz(1-CH2CO,4-CH2CH2NH)]YF[NMeL][Nle][2Pal][NMeA]RG-NH2 (SMILES CCCC[C@H](NC(=O)[C@H](CC(C)C)N(C)C(=O)[C@H](Cc1ccccc1)NC(=O)[C@H](Cc1ccc(O)cc1)NC(=O)CN1CCN(CCNC(=O)CN(C)C(=O)CN(C)C(=O)CN(C)C(=O)CN(C)C(=O)CN(C)C(=O)CN(C)C(=O)CN(C)C(=O)CN(C)C(=O)CN(C)C(=O)CN(C)C(=O)CN(C)C(=O)CN(C)C(=O)CN(C)C(=O)CN(C)C(=O)CN(C)C(=O)CC[C@H](NC(=O)CC[C@H](NC(=O)CC[C@H](NC(=O)CCCCCCCCCCCCCCCCC(=O)O)C(=O)O)C(=O)O)C(=O)O)CC1)C(=O)N[C@@H](Cc1ccccn1)C(=O)N(C)[C@@H](C)C(=O)N[C@@H](CCCNC(=N)N)C(=O)NCC(N)=O) [C18DA-gGlu3-Sar15-AEPipAc-Tyr-Phe-NMeLeu-Nle-2Pal-NMeAla-Arg-Gly-NH2]
